Measured values as given in patent US20230062308A1, “TREATMENT OF CK8 POSITIVE CANCERS IN RELATION WITH K-RAS GENE STATUS” (INTERNATIONAL - DRUG - DEVELOPMENT - BIOTECH, priority 2017, published 2023).

T1: CK8 (Homo sapiens, UniProt P05787)
T1 sequence (P05787 1-483): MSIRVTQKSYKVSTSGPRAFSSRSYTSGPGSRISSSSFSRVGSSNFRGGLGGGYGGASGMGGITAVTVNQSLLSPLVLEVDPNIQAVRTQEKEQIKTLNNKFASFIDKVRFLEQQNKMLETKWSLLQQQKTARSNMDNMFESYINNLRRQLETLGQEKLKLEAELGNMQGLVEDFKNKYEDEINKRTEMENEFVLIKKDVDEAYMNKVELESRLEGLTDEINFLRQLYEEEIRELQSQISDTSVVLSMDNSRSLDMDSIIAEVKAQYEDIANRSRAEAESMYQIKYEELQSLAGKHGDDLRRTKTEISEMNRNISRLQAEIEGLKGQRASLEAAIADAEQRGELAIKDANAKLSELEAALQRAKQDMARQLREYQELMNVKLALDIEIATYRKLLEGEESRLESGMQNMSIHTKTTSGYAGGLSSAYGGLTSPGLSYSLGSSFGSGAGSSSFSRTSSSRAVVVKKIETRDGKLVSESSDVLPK


Assays:
[1] = system: Human HAN larynx cell line BICR18; assay: In vivo tumour growth, HAN CDX model (larynx cell line BICR18); details: BICR18 s.c. in SCID mice; HzR022 (D-A10) 10 mg/kg i.p. BIW × 3; cisplatin 2.5 mg/kg i.p. QW × 3
Protocol: Human HAN larynx cell line BICR18 was subcutaneously injected in SCID mice, with a concentration of 1.10^6 cells per injection (200 μL). Mice were randomized when the tumours reached a mean volume of about 100 mm^3 for the 9 groups (total 45 mice). […] The endpoint was defined by animal ethics as a tumour diameter of >18 mm, significant weight loss or alteration of animal well-being. In order to assess the effectiveness of the compounds on tumourigenesis, tumour volume was measured two times a week. The size of the primary tumours were measured using calipers and the tumour volume (TV) was extrapolated to a sphere using the formula TV= 4/3π×r^3, by calculating the mean radius from the two measurements. The median and standard deviation were also calculated for each group. Median is preferred to mean in order to exclude the extreme values. MAb treatment was administered by intraperitoneal injection twice a week during three weeks at 10 or 1 mg/kg doses. The cisplatin (Myland) treatment was administered by intraperitoneal injection once per week during three weeks at 1, 2.5 or 5 mg/kg doses. The product was prepared in accordance with the sponsor's guidelines, i.e. diluted in PBS. Mice were sacrificed when the tumours reached a maximum volume of 1600 mm^3. […] The t-test (two-tailed test) was performed on the tumour volume values (mm^3) measured on the day of sacrifice.

[2] = molecular target: T1, CK8; assay: Antibody internalisation assay by flow cytometry; type: cell-based; set-up: methods to investigate on CK8 cellular expression at the cell surface analysed by flow cytometry; endogenous in cells; details: 4° C. versus 37° C., 24 hours; 0.78 or 0.39 μg/mL; HCT116, U87MG, BICR56, BxPC3, DU145 cell lines (FIG. 4-6)
Protocol: This example describes methods to investigate on HzR022 (D-A10) internalisation following CK8 detection at the cell surface analysed by flow cytometry.
Flow cytometry experiments for MAb internalisation. Briefly, 2.10^5 cells per 96 wells are incubated at 4° C. versus 37° C. during 24 hours with a dilution of unconjugated murine anti CK8 MAb at 50 μg/mL then diluted at ½. The MAb anti CK8 tested were D-A10 (IgG2b), D-F5 (IgG2a) or D-D6 (IgG1), from iDD biotech MAb panel. The isotype matched MAbs used were B-Z1 (IgG1), B-Z2 (IgG2a) or B-E4 (IgG2b) (Diaclone, Besancon, France). Unbound antibodies were washed away with PBS (Life technologies, St Aubin, France) supplemented by 1% Bovine Serum Albumin (Sigma, St Quentin Fallavier, France). Subsequently, cells are centrifuged (5 min at 400 g) and bound antibody is detected with Fluorescein Isothiocyanate (FITC) conjugated goat (Fab′)2 polyclonal anti mouse Ig (MP Biomedical, Illkirch, France) at 4° C. for 30 min. Detection reagent is washed away and cells are centrifuged (5 min at 400 g) and suspended in 300 μL PBS. Bound detection antibody is quantified on a FACSCAN (BD Biosciences, Rungis, France), (FL1 channel, 3 000 events per acquisition). During the experiment, the respective isotype controls are included to exclude any unspecific binding events
Results of experiments are shown in FIG. 4 for D-A10 MAb (at 0.78 or 0.39 μg/mL), in FIG. 5 for D-D6 (at 0.78 or 0.39 μg/mL), in FIG. 6 for D-F5 (at 0.78 or 0.39 μg/mL). One example was shown for CRC from HCT116 cell line, GBM from U87MG cell line, HAN from BIRC56 cell line, PC from BxPC3 or PRC from DU145.

Row | internalization potential [2] | Molecule | tumour growth control (tumour volume, FIG. 3) [1]
1 |  | N.N.[Cl][Pt][Cl] [cisplatin, reference compound] | rapid cisplatin escape
2 | lower internalization potential | D-F5: murine anti-CK8 monoclonal antibody (IgG2a); VL SEQ ID NO: 40, VH SEQ ID NO: 42 (antibody, V domains shown, VH-mR022 (D-F5); VL-mR022 (D-F5)) VH: QVQLKESGPGLVAPSQSLSITCTVSGFSLTSYGVHWVRQPPGKGLEWLGVIWAGGSTNYNSALMSRLRISKDNSKSQVFLKMNSLQTDDTAMYYCARIYGNYGRFAYWGQGTSVTVSS VL: DVVMTQTPLSLPVSLGDQASISCRSSQSIVHSNGNTYLEWYLQKPGQSPKLLIYKVSNRLSGVPDRFSGSGSGTDFTLKISRVEAEDLGVYYCFQGSLVPLTFGGGTKLEIK | 
3 | highest internalization potential | D-D6: murine anti-CK8 monoclonal antibody (IgG1); VL SEQ ID NO: 36, VH SEQ ID NO: 38 (antibody, V domains shown, VH-mR022 (D-D6); VL-mR022 (D-D6)) VH: DVQLQESGPGLVKPSQSLSLTCTVTGYSITSDYAWNWIRQFPGNKLEWMGYISYSGRTSYNPSLKSRISITRDTSKNHFFLQLNSVTTEDTATYYCAPLTTGVGYAMDYWGQGTSVTVSS VL: DVVMTQTPLSLPVSLGDQASISCRSSQSLVHSNGNTYLHWYLQKPGQSPKVLIYKVSNRFSGVPDRFSGSGSGTDFTLKISRVEAEDLGVYFCSQSTHVPFTFGGGTKLEIK | 
4 | highest internalization potential | D-A10: murine anti-CK8 monoclonal antibody (IgG2b); VL SEQ ID NO: 2, VH SEQ ID NO: 4 (antibody, V domains shown, VH mD-A10; VLmD-A10) VH: EVQLLETGGGLVQPGGSRGLSCEGSGFTFSGFWMSWVRQTPGKTLEWIGDINSDGSAIKYAPSIKDRFTIFRDNDKSTLYLQMSNVRSEDTATYFCIAHYSGGGFAYWGQGTSVTVSS VL: NIVMTQAAPSVPVTPGESVSISCRSSKSLLYSNGNTYLYWFLQRPGQSPQRLIYYMSNLASGVPDRFSGRGSGTDFTLRISRVEAEDVGVYYCMQSLEYPFTFGGGTKLEIK | 
